Laboratory results reported in article PMC10940318, “Targeted intracellular delivery of dimeric STINGa by two pHLIP peptides for treatment of solid tumors” (Frontiers in Pharmacology, 2024).

What was measured:
[1] = biological target: human serum albumin (HSA) (Homo sapiens, UniProt P02768)
Procedure: HSA was initially dissolved to 500 μM in deionized water and further diluted using pH 7.6 phosphate buffer. Dansylamide (DNSA) or dansylglycine (DNSG) (both from Tokyo Chemical Industry) were used as fluorescent markers, which are known to bind to specific sites on HSA. Each well contained 100 μL of sample consisting of the fluorescent marker DNSA or DNSG (1 μM), with different concentrations of pHLIP agents (0, 5, or 10 μM) and concentrations of HSA ranging from 0 μM to 100 μM. Samples were incubated for 2 h at 37°C. […] Fluorescence measurements from each well were performed at 485 nm with excitation at 365 nm at 37°C. As a control, binding of DNSA and DNSG were probed with each agent in absence of HSA. Before the measurements a plate reader optimization test was run. Data were fitted individually and globally using the Michaelis-Menten equation. […] Data was fitted by nonlinear least squares curve fitting procedures employing the Levenberg Marquardt algorithm using Origin 8.5.
Table S1. Competitive binding assay.
Figure S8. HSA binding. […] The global fitting was performed with each set of data and the fitting curves are shown as black, blue and red lines.

[2] = pH-dependent insertion into POPC liposome bilayer monitored by CD; type: physicochemical; conditions: CD ellipticity vs pH, 7 µM agent, 1.4 mM POPC, 25°C, Henderson-Hasselbalch fit
Procedure: The interactions of pHLIP-mMSA and 2pHLIP-dMSA with liposomes were investigated by recording the construct’s fluorescence and circular dichroism (CD) using a PC1 spectrofluorometer (ISS) and a MOS-450 spectrometer (Bio-Logic Science Instruments), respectively, with temperature control set to 25°C. Liposomes, constituting of large unilamellar vesicles were prepared by extrusion. 1-palmitoyl-2-oleoyl-sn-glycero-3-phosphocholine (POPC) lipids (Avanti Polar Lipids) in chloroform were desolvated on a rotary evaporator and dried under vacuum for a minimum of 2 h. The phospholipid film was rehydrated in 2 mM citrate phosphate buffer, pH 7.4, vortexed, and passed through the extruder (using a 50 nm membrane pore size) 21 times.
Fluorescence spectra were recorded from 310 nm to 390 nm at an excitation wavelength of 295 nm and 1.0 mm sized slits. […] CD spectra were recorded from 190 to 260 nm with a step size of 1 nm. […]
The pH-dependent insertion of pHLIP-mMSA or 2pHLIP-dMSA into the lipid bilayer of POPC liposomes was studied by monitoring changes in the molar ellipticity as a function of pH. After the addition of aliquots of citric acid, the pHs of solutions containing pHLIP-mMSA/2pHLIP-dMSA and POPC liposomes were measured using an Orion PerHecT ROSS Combination pH Micro Electrode and an Orion Dual Star pH and ISE Benchtop Meter. […]

[3] = system: THP-1-Blue-ISG cells polarized into M2-type macrophages; test: Activation of IFN (IRF-SEAP reporter) in M2-polarized macrophages; type: cell-based, human; conditions: THP1-Blue-ISG cells polarized by PMA, IL-4/IL-13, 2 h in DMEM without FBS pH 6.9, then 48 h, QUANTI-Blue, absorbance 655 nm, read-out: EC50 of activation of IRF signaling
Procedure: THP-1-Blue™-ISG cells (Invivogen) expressing an interferon (IFN) regulatory factor (IRF)-inducible secreted embryonic alkaline phosphatase (SEAP) reporter construct were used. Cells were maintained in RPMI growth medium supplemented with L-glutamine, sodium pyruvate, 10% fetal bovine serum (FBS), normocin and ciprofloxacin hydrochloride in a humidified atmosphere of 5% CO2 and 95% air at 37°C. Cells were seeded in 96-well plates at a density of 75,000 cells/well. To generate M2 polarized macrophages, cells were treated first with 185 ng/mL phorbol 12-myristate 13-acetate (PMA) for 6 h and then 20 ng/mL of interleukin 4 (IL-4) and 20 ng/mL of interleukin 13 (IL-13) (both from PeproTech) were added for another 16 h of treatment. […] After a 2-h incubation, an equal volume of RPMI supplemented with 20% heat-inactivated FBS was added, and cells were incubated for another 48 h. SEAP activity was accessed using the QUANTI-Blue™ Solution (Invivogen) to evaluate type I interferon protein levels: 150 μL of the colorimetric reagent was added to 50 μL of cell supernatant for 30 min, 37°C, followed by absorption measurement at 655 nm.

[4] = Blood clearance (PK) by whole blood fluorescence imaging; type: in vivo, Balb/c mice
Procedure: For biodistribution studies 5 × 10^4 of CT26 cancer cells were injected SQ in 100 µL of growth medium into the right flank of female Balb/c mice and tumors were grown until they reached 150–250 mm^3 in volume. Then a single retro-orbital (RO) injection of 50 μM 100 μL of 2(ICG-pHLIP)-dMSA was performed. Animals were euthanized at 5 min, 1, 4, 24, 48, 72, and 120 h post-injection, blood was collected in K2 EDTA vacutainer blood collection tubes (BD), and necropsy was performed immediately after animals were euthanized. Blood, tumors and major organs (kidney, liver, spleen, pancreas, lung, heart, large and small intestines, bone, muscle, brain) were collected, and imaged ex vivo immediately after necropsy. Blood (200 µL) was imaged in 96-well plates with black bottom and walls.
The in vivo and ex vivo bright field and near-infrared fluorescent imaging employed a Stryker 1588 AIM endoscopic system with L10 AIM Light Source (808 nm excitation and collection of light in the range of approximately of 815–850 nm), and a 1588 AIM Camera using a 10 mm scope. The lens was kept at a fixed distance from the surface of the organs, within an enclosed (light-protected) area. Calibration curves converting laser and gain settings were established by imaging of pHLIP-ICG solution at different concentrations. The ex vivo fluorescence imaging of tissue specimens was performed using three different laser settings and six different gain settings. The digital fluorescence images were split into RGB channels, with the green channel being analyzed using ImageJ program to calculate the average fluorescence intensity. All average intensities were adjusted based on their capture settings and using calibration curves to present fluorescence intensities corresponding to the unified (the same) settings.

ADQDNPWRAYLDLLFPTDTLLLDLLWCG [2pHLIP-dMSA]
binding to HSA (in words) [1]: strong binding | cooperativity (n) of insertion into POPC bilayer [2]: 1.2 | pK (mid-point) of insertion into POPC bilayer [2]: 6.0 | EC50 [3]: 200 nM | circulation in the blood ([4]; mice, stated in discussion): 1 to 2 days | blood clearance half-life ([4]; single RO injection of 2(ICG-pHLIP)-dMSA 50 µM 100 µL, CT26 tumor-bearing female Balb/c mice, whole blood fluorescence, exponential fit): > 30 h
